{"source": "patent US20250019435A1", "about": "(ALBERT EINSTEIN COLLEGE OF MEDICINE, published 2025)", "binders": {"B1": {"name": "anti-KIR2DL5 mAb clone F8B30 (antibody, V domains shown)", "VH": "QIQLVQSGPELKKPGETVKISCKASGYTFTDYSMHWVKQAPGKGLKWMGWINTETGGPTYADDFKGRFAFSLETSATTAYLQINNLKNEDTATYFCSRDVDLYFDYWGQGTTLTVS", "VL": "DIQMTQSPASLSASVGETVTITCRTSENIYSYLAWYQQKQGKSPQLLVYNAKTLVEGVPSRFSGSGSGTQFSVKINSLQPEDFGNYYCQHHYGIPFTFGGGTKLEIK", "notes": "also called F8B30 (IgG1, κ)"}}, "key": {"[1]": {"molecular_target": "T1, KIR2DL5 wild type (KIR2DL5A*001) expressed on cells (human, UniProt Q8N109 22-375)", "T1 construct": "UniProtKB Q8N109 and NP_065396.1 are printed for this entry; In the SHP-1/SHP-2 co-immunoprecipitation the cells were treated with pervanadate and the receptor was tyrosine-phosphorylated; also called KIR2DL5/3T3; WT KIR2DL5", "test": "flow cytometry, blocking: KIR2DL5/3T3 cells preincubated with serial F8B30, then 20 µg/mL PVR-Ig", "experimental": "Specifically, a cell-based binding assay was performed by incubating PVR-Ig fusion protein with KIR2DL5- or KIR2DL4-expressing 3T3 cells. Conversely, KIR2DL5 was selectively bound by PVR, but not by CD112 (also known as nectin-2), another ligand for TIGIT and DNAM-1 in the nectin/nectin-like family (FIG. 10A). Furthermore, anti-KIR2DL5 mAb F8B30 blocked KIR2DL5-PVR interaction (EC₅₀=0.095 μM) (FIG. 10B). The specificity of KIR2DL5 binding to PVR was also evidenced by an intercellular interaction assay, in which 3T3 cells expressing PVR interacted with 3T3 cells expressing KIR2DL5, but not with cells expressing KIR3DL3 (FIG. 18B), a newly identified inhibitory receptor of HHLA2 (Zang, 2022; Wei 2021; Bhatt 2021).\nFusion protein cell binding assays. PVR-Ig, CD112-Ig, or hIgG (R&D Systems) was incubated with corresponding 3T3 cells on ice for 45 minutes, followed by incubation with APC- or PE-conjugated anti-human IgG Fc antibody (1:100; clone HP6017, BioLegend) on ice for 30 minutes. Cells were then acquired on an LSR II flow cytometer (BD Biosciences). In the anti-KIR2DL5 mAb blocking assay, KIR2DL5/3T3 cells were preincubated with a serial concentration of anti-KIR2DL5 mAb F8B30 or mIgG1 on ice for 30 minutes. After washing, the cells were then incubated with 20 μg/mL PVR-Ig or hIgG on ice for 45 minutes, followed by incubation with APC anti-human IgG Fc antibody on ice for 30 minutes. […]"}, "[2]": {"molecular_target": "T2, KIR2DL5-Ig fusion protein (KIR2DL5 extracellular domain fused to human IgG1 Fc) (human, UniProt Q8N109 22-240)", "T2 construct": "A D0-only fusion (H22-A128) also exists; also called KIR2DL5-human Ig fusion protein; KIR2DL5 DO-D2-Ig; not shown: human IgG1 Fc tag", "T2 sequence (Q8N109 22-240)": "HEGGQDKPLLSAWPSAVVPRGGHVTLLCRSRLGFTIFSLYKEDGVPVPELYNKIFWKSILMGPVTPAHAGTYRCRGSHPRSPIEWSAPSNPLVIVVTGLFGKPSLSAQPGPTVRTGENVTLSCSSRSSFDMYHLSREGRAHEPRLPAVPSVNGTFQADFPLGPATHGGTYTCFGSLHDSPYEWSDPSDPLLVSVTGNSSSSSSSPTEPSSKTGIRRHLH", "test": "BLI, Octet RED96; KIR2DL5-Ig captured on anti-human Fc biosensors, mAb in solution; global 1:1 fit", "experimental": "Biolayer interferometry. The affinities of anti-KIR2DL5 mAbs were analyzed by biolayer interferometry using an Octet RED96 system (ForteBio, Pall LLC). Briefly, anti-human Fc capture biosensors (ForteBio, Pall LLC) were preloaded with KIR2DL5-Ig and then dipped into a solution containing mAb at 2-fold serial dilutions (from 200 to 1.5 μg/mL). Data were analyzed using Forte Pall (Port Washington, New York, USA) software 9.0. The global data fitting to a 1:1 binding model was used to estimate values for the Kₒₙ (association rate constant), Koff (dissociation rate constant), and KD (equilibrium dissociation constant)."}, "[3]": {"molecular_target": "T3, KIR2DL5A*005 allele expressed on 3T3 cells (human)", "T3 construct": "also called 2D5A*005", "T3 sequence (chain, as listed by the source)": "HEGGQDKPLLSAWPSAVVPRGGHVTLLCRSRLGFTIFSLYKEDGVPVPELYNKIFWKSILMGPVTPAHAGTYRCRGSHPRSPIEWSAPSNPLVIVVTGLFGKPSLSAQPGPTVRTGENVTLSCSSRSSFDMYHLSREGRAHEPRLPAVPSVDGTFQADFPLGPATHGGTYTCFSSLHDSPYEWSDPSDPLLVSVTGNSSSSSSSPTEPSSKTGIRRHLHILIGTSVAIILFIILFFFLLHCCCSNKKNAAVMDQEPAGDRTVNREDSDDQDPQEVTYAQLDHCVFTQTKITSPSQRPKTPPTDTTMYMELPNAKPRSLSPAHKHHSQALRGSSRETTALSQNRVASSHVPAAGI", "test": "flow cytometry, transduced 3T3 cells, mAb 5 µg/mL", "experimental": "(§1) FIG. 8A-8D: Generation and characterization of anti-KIR2DL5-specific mAbs. (A) The specificity of anti-KIR2DL5 mAb clone F8B30. 3T3 cells transduced with indicated KIR family members were stained with 5 μg/mL of F8B30 (open) or mIgG1 (shaded). (B) 3T3 cells transduced with DO-deleted (KIR2DL5 dD0) or D2-deleted KIR2DL5 (KIR2DL5 dD2) were stained with 5 μg/mL of clone F8B30 or commercial clone UP-R1. (C) Anti-KIR2DL5 mAb clone F8B30 recognized different KIR2DL5A and 5B alleles. 3T3 cells transduced with indicated alleles were stained with 5 μg/mL of F8B30 or UP-R1 (open) or mIgG1 (shaded). (D) Anti-KIR2DL5 mAb clone F8B30 recognized different KIR2DL5 DO domain variants. 3T3 cells transduced with indicated DO variants were stained with 0.025 μg/mL of F8B30 or UP-R1 (open) or mIgG1 (shaded). In A-D, data are representative of 2 independent experiments."}, "[4]": {"molecular_target": "T4, D0-deleted KIR2DL5 expressed on 3T3 cells (human, UniProt Q8N109 119-375)", "T4 construct": "the signal peptide 1-21 is left out; also called KIR2DL5 dD0; DO-deleted KIR2DL5", "T4 sequence (Q8N109 119-375, stated change not applied)": "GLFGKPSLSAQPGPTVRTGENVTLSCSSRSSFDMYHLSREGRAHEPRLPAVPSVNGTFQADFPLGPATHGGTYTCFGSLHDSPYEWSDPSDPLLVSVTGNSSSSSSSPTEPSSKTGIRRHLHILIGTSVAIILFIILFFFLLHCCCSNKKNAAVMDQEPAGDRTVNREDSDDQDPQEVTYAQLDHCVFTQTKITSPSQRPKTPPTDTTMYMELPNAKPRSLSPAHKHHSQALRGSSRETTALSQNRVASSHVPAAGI", "test": "flow cytometry, transduced 3T3 cells", "experimental": "as §1"}, "[5]": {"molecular_target": "KIR2DL5 D0 variant G97S expressed on 3T3 cells (human, UniProt Q8N109 22-375)", "sequence (Q8N109 22-375 G97S)": "as the sequence (chain, as listed by the source) above, with G76S, D152N, S174G counted along it", "test": "flow cytometry on 3T3 cells expressing the KIR2DL5 D0 variant"}, "[6]": {"molecular_target": "KIR2DL5 D0 variant T46S expressed on 3T3 cells (human, UniProt Q8N109 22-375)", "sequence (Q8N109 22-375 T46S)": "as the sequence (chain, as listed by the source) above, with T25S, D152N, S174G counted along it", "test": "flow cytometry on 3T3 cells expressing the KIR2DL5 D0 variant"}, "[7]": {"molecular_target": "KIR2DL5 D0 variant R52H expressed on 3T3 cells (human, UniProt Q8N109 22-375)", "sequence (Q8N109 22-375 R52H)": "as the sequence (chain, as listed by the source) above, with R31H, D152N, S174G counted along it", "test": "flow cytometry on 3T3 cells expressing the KIR2DL5 D0 variant"}, "[8]": {"molecular_target": "KIR2DL5 D0 variant P112S expressed on 3T3 cells (human, UniProt Q8N109 22-375)", "sequence (Q8N109 22-375 P112S)": "as the sequence (chain, as listed by the source) above, with P91S, D152N, S174G counted along it", "test": "flow cytometry on 3T3 cells expressing the KIR2DL5 D0 variant"}}}
{"binder": "B1", "values": [{"measurement": "EC50", "setting": "[1]", "result": 95, "unit": "nM"}, {"measurement": "Kd", "setting": "[2]", "result": 0.723, "unit": "nM"}, {"measurement": "koff", "setting": "[2]", "result": 0.000444, "unit": "s⁻¹"}, {"measurement": "kon", "setting": "[2]", "result": 615000, "unit": "M⁻¹ s⁻¹"}, {"measurement": "binding result", "setting": "[3]", "result": "binds"}, {"measurement": "binding result", "setting": "[4]", "result": "no binding (tested: 5 µg/mL)"}, {"measurement": "EC50", "setting": "[5]", "result": 43.6, "unit": "nM"}, {"measurement": "EC50", "setting": "[6]", "result": 8.6, "unit": "nM"}, {"measurement": "EC50", "setting": "[7]", "result": 9.2, "unit": "nM"}, {"measurement": "EC50", "setting": "[8]", "result": 9.4, "unit": "nM"}]}
